T1: human CD73 on CD73-expressing human tumor cells (MDA-MB-231, NCI-H292) (human, UniProt P21589 27-549)
T1 construct: whole, on cells; The cell line of each result is named under assay or readout; also called cell surface CD73; surface CD73
T1 sequence (looked up): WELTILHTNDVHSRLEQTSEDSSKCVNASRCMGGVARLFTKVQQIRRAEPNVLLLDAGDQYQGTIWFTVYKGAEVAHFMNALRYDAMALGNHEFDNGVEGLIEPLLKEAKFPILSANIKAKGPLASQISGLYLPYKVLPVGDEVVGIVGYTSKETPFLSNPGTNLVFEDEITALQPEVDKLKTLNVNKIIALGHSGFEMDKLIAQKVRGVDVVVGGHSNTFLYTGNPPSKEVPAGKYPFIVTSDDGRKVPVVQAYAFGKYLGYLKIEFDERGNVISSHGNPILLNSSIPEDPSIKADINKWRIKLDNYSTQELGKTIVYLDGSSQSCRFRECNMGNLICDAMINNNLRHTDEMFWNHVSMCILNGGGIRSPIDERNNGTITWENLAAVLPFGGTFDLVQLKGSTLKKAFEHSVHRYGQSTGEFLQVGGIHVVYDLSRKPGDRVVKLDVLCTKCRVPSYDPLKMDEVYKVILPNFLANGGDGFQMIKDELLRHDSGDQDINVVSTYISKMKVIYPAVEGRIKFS

B1: N1#9 (antibody, human IgG2, V domains shown)
VH: EVQLVESGGGLVQPGRSLRLSCAASGFTFDDYAMHWVRLAPGKGLEWVSGISWNSGSIGYADSVRGRFTISRDNAKNSLYLQMNSLRAEDTALYYCAKDMGWSLLKTNYYGMDVWGQGTTVTVSS
VL: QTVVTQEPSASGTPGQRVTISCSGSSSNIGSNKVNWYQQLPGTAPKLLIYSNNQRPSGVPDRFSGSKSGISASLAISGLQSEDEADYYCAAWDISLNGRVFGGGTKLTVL
notes: also called N1 variant N1#9
B2: N1#2 (antibody, human IgG2, V domains shown)
VH: B1 VH with F27L, L39Q, G56N, S63P, S103E, N108S
VL: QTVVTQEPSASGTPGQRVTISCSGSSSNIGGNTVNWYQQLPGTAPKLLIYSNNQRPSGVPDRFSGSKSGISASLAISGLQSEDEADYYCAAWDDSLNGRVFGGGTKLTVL
notes: also called N1 variant N1#2
B3: N4#6 (antibody, human IgG2, V domains shown)
VH: QVQLVQSGAEVKKSGSSVKVSCKASGGTFSSYAISWVRQAPGQGLEWMGGIIPIFGTTNYAQKFQGRVTITADESTSIAYMELSSLRSEDTAVYYCASDGAVAAYDAFLIWGQGTMVTVSS
VL: QAVLTQPSSVSGAPGQRVTISCTGTSSNIGAGYDIHWYQQLPGTAPKLLMYRFTRRPSGVPDRFSGSKSGTSASLTITGLQVEDEADYYCQSYDSGQRGWVFGGGTKLTVL
notes: also called N4 variant N4#6
B4: N4#4-3 (antibody, human IgG2, V domains shown)
VH: B3 VH with S30A, T58V, L109D
VL: B3 VL with A31Q, Q97L, V101A
notes: also called N4 variant N4#4-3
B5: N4#6-2 (antibody, human IgG2, V domains shown)
VH: B3 VH with G50R
VL: B3 VL with A31H, Q40H, T54V
notes: also called N4 variant N4#6-2
B6: N4#5 (antibody, human IgG2, V domains shown)
VH: B3 VH with S35A, T58V, L109S
VL: B3 VL with Q97L, W100L
notes: also called N4 variant N4#5
B7: N4#6-3 (antibody, human IgG2, V domains shown)
VH: B3 VH with T58A
VL: B3 VL with A31L, Q40H, T54D
notes: also called N4 variant N4#6-3
B8: N4#6-4 (antibody, human IgG2, V domains shown)
VH: B3 VH with G50M, T58A
VL: B3 VL with Y33F, T54S
notes: also called N4 variant N4#6-4
B9: N4#6-5 (antibody, human IgG2, V domains shown)
VH: B3 VH with G50R, V93M
VL: B3 VL with A31T
notes: also called N4 variant N4#6-5
B10: N1-wtIgG2 (antibody)
heavy: EVQLVESGGGLVQPGRSLRLSCAASGFTFDDYAMHWVRQAPGKGLEWVSGISWNSGSIGYADSVRGRFTISRDNAKNSLYLQMNSLRAEDTALYYCAKDMGWELLKTYYYGMDVWGQGTTVTVSSASTKGPSVFPLAPCSRSTSESTAALGCLVKDYFPEPVTVSWNSGALTSGVHTFPAVLQSSGLYSLSSVVTVPSSNFGTQTYTCNVDHKPSNTKVDKTVERKCCVECPPCPAPPVAGPSVFLFPPKPKDTLMISRTPEVTCVVVDVSHEDPEVQFNWYVDGVEVHNAKTKPREEQFNSTFRVVSVLTVVHQDWLNGKEYKCKVSNKGLPAPIEKTISKTKGQPREPQVYTLPPSREEMTKNQVSLTCLVKGFYPSDIAVEWESNGQPENNYKTTPPMLDSDGSFFLYSKLTVDKSRWQQGNVFSCSVMHEALHNHYTQKSLSLSPGK
light: not shown
notes: Heavy chain assembled from VH and the named constant region entry; also called N1 clone, wtIgG2 isotype
B11: N1-mtIgG2 (antibody)
heavy: B10 heavy with C227S
light: not shown
notes: Heavy chain assembled from VH and the named constant region entry; also called N1 clone, mtIgG2 isotype; C219S mutant IgG2

Residue numbers refer to the chain shown, from its start. Names and notes keep the numbering of the source.

One test deals with T1, human CD73 on CD73-expressing human …. Put plainly: flow cytometry on MDA-MB-231 and NCI-H292 cells (FIGS. 11A, 11B). The protocol:
Whole cell binding ability of anti-CD73 antibodies were tested by incubating the MDA-MB-231 or NCI-H292 cells with the serial-diluted antibodies in FACS buffer (PBS with 2% FBS) at 4° C. for 30 minutes. Cells were washed with FACS buffer and the binding was detected with FITC-labeled goat anti-human IgG (H+L) antibodies (or PE-labeled goat anti-human IgG Fcγ) at 4° C. for another 30 minutes. The binding of antibodies to cell surface was measured by the mean fluorescent intensity (MFI) of staining. Flow cytometric analyses were performed using the Cytomics FC500 or CytoFLEX flow cytometry (Beckman Coulter Inc.). FIGS. 2B and 2C show selected anti-CD73 antibodies binding to CD73-expressing human tumor cells MDA-MB-231 (human breast adenocarcinoma) cells (FIG. 2B), and NCI-H292 (human mucoepidermoid pulmonary carcinoma) cells (FIG. 2C).
FIGS. 11A-11B also show CD73 binding of N1 and N4 variants. Selected variants were tested the binding to CD73-expressing MDA-MB-231 (FIG. 11A) and NCI-H292 (FIG. 11B) cells by flow cytometry. HLX01 (anti-CD20) was used as the negative control. […] N4 variants have better CD73 binding ability than N1 variants in these two cell lines. The rank of the whole cell binding ability is: N4#5, N4#6-4, N4#6-5>N4#6-2>N4#4-3, N4#6, N4#6-3, N1#9>N1#2.
(In general: In flow cytometry, cells or beads pass a laser one at a time.)
For B1, the binding result is on record as “binds”.

As to B2, the binding result is given as “binds”.

With B3, the binding result is “binds”.

As for B4, the binding result is “binds”.

Turning to B5, the binding result is recorded as “binds”.

As for B6, the binding result is recorded as “binds”.

For the molecule B7, the binding result is “binds”.

As to B8, the binding result is “binds”.

Regarding B9, the binding result is “binds”.

The target is the same in the next test. The test is described as follows: flow cytometry on MDA-MB-231 cells, biotin-labeled antibody, streptavidin-FITC (FIG. 5A). The procedure: The binding of anti-CD73 antibodies to cell surface CD73 were tested by incubating the MDA-MB-231 cells with the serially diluted biotin-labeled anti-CD73 antibodies in FACS buffer (PBS with 2% FBS) at 4° C. for 30 minutes. The cells were washed with FACS buffer and the binding was detected with streptavidin-FITC at 4° C. for 30 minutes. Flow cytometric analyses were performed using the Cytomics FC500 (Beckman Coulter Inc.).
The variable sequences of N1, N2 and N4 were cloned into human wild-type or C219S mutant IgG2 Fc backbone. Different IgG isotypes of N1 (FIG. 5A), N2 (FIG. 5B), N4 (FIG. 5C) were tested the binding to CD73-expressing human MDA-MB-231 cells by flow cytometry. Anti-CD73 ref-1 antibody and HLX01 (anti-CD20) were used as the positive and negative control respectively.
For B10, the binding result was “binds”.

B11: the binding result was “binds”.

(Values after patent US20220162334A1 (SHANGHAI HENLIUS BIOTECH, published 2022).)
